The supplement of paper PMC9112550, “Optimization of the antimicrobial peptide Bac7 by deep mutational scanning” (BMC Biology, 2022)
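Further: peptides expressed intracellularly from a pBAD plasmid library in pooled LB shake-flask culture, induced with 0.3% L-arabinose, DNA abundance read by NGS, three biological replicates, DESeq2 with apeglm shrinkage.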

These sequences were tested on Escherichia coli TOP10 (assay: shrunken log2 fold change of peptide-encoding DNA abundance (4.5 h post-induction vs induction); higher = less antimicrobial activity (less host growth inhibition)). Settings: time post-induction: 4.5 h; library: site-saturation at positions 5, 18, 19, 20.
In the case of RRIRPRPPRLPRPRPRPSTEPRP, the “shrunken log2 fold change” value is reported as -0.0218. In the case of RRIRHRPPRLPRPRPRPGHGPRP, the “shrunken log2 fold change” value is reported as 0.0264. In the case of RRIRMRPPRLPRPRPRPNAMPRP, the “shrunken log2 fold change” value is reported as 0.16. RRIRTRPPRLPRPRPRPEWHPRP was tested, and the “shrunken log2 fold change” value was 0.0594. For RRIRFRPPRLPRPRPRPIIGPRP, the “shrunken log2 fold change” value was -0.024. For RRIRMRPPRLPRPRPRPDEKPRP, the “shrunken log2 fold change” value was -0.0255. With RRIRARPPRLPRPRPRPYYRPRP the “shrunken log2 fold change” value was -0.183. For RRIRGRPPRLPRPRPRPHAQPRP, the “shrunken log2 fold change” value was 0.868. RRIRPRPPRLPRPRPRPTTDPRP was tested, and the “shrunken log2 fold change” value was 0.0167. With RRIRQRPPRLPRPRPRPPDTPRP the “shrunken log2 fold change” value was 0.103. With RRIRQRPPRLPRPRPRPRWFPRP the “shrunken log2 fold change” value was 0.0284. With RRIRGRPPRLPRPRPRPDPLPRP the “shrunken log2 fold change” value was 0.072. For RRIRKRPPRLPRPRPRPAERPRP, the “shrunken log2 fold change” value was 0.123. RRIRSRPPRLPRPRPRPIRRPRP was tested, and the “shrunken log2 fold change” value was 0.011. For RRIRARPPRLPRPRPRPYTVPRP, the “shrunken log2 fold change” value was -0.306. With RRIRNRPPRLPRPRPRPELKPRP the “shrunken log2 fold change” value was 0.00533. RRIRDRPPRLPRPRPRPLIPPRP was tested, and the “shrunken log2 fold change” value was -0.516. RRIRQRPPRLPRPRPRPSQLPRP was tested, and the “shrunken log2 fold change” value was 0.0128. With RRIRWRPPRLPRPRPRPFHQPRP the “shrunken log2 fold change” value was -0.259. In the case of RRIRIRPPRLPRPRPRPEMWPRP, the “shrunken log2 fold change” value is reported as 0.0226. For RRIRGRPPRLPRPRPRPIQAPRP, the “shrunken log2 fold change” value was 1.16. For RRIRSRPPRLPRPRPRPMTCPRP, the “shrunken log2 fold change” value was 0.04. In the case of RRIRKRPPRLPRPRPRPFIWPRP, the “shrunken log2 fold change” value is reported as -0.0554. For RRIRDRPPRLPRPRPRPPHMPRP, the “shrunken log2 fold change” value was 1.51. With RRIRPRPPRLPRPRPRPTRDPRP the “shrunken log2 fold change” value was 0.481. In the case of RRIRDRPPRLPRPRPRPCKIPRP, the “shrunken log2 fold change” value is reported as -0.0385. RRIRKRPPRLPRPRPRPGERPRP was tested, and the “shrunken log2 fold change” value was -0.116. For RRIRMRPPRLPRPRPRPDAAPRP, the “shrunken log2 fold change” value was 3.98. In the case of RRIRTRPPRLPRPRPRPFFPPRP, the “shrunken log2 fold change” value is reported as 0.191. For RRIRWRPPRLPRPRPRPSRWPRP, the “shrunken log2 fold change” value was 0.209. In the case of RRIRERPPRLPRPRPRPLGGPRP, the “shrunken log2 fold change” value is reported as -0.073. For RRIRYRPPRLPRPRPRPCRCPRP, the “shrunken log2 fold change” value was -0.0894. For RRIRRRPPRLPRPRPRPQLAPRP, the “shrunken log2 fold change” value was -0.0216. With RRIRHRPPRLPRPRPRPCHKPRP the “shrunken log2 fold change” value was -0.0933. With RRIRKRPPRLPRPRPRPDFHPRP the “shrunken log2 fold change” value was -0.312. In the case of RRIRPRPPRLPRPRPRPPWGPRP, the “shrunken log2 fold change” value is reported as 0.34. With RRIRMRPPRLPRPRPRPAEDPRP the “shrunken log2 fold change” value was 1.93. With RRIRLRPPRLPRPRPRPELLPRP the “shrunken log2 fold change” value was 0.335. For RRIRHRPPRLPRPRPRPCRLPRP, the “shrunken log2 fold change” value was 0.0253. With RRIRCRPPRLPRPRPRPTCLPRP the “shrunken log2 fold change” value was 0.00222. In the case of RRIRSRPPRLPRPRPRPCFLPRP, the “shrunken log2 fold change” value is reported as -0.642. For RRIRLRPPRLPRPRPRPEDNPRP, the “shrunken log2 fold change” value was 0.0216. For RRIRRRPPRLPRPRPRPHEDPRP, the “shrunken log2 fold change” value was 0.0653. In the case of RRIRQRPPRLPRPRPRPRNAPRP, the “shrunken log2 fold change” value is reported as 0.483. With RRIRYRPPRLPRPRPRPSNRPRP the “shrunken log2 fold change” value was -0.134. In the case of RRIRRRPPRLPRPRPRPGLKPRP, the “shrunken log2 fold change” value is reported as 0.377. In the case of RRIRRRPPRLPRPRPRPGIMPRP, the “shrunken log2 fold change” value is reported as 0.156. With RRIRARPPRLPRPRPRPIKLPRP the “shrunken log2 fold change” value was -0.16. In the case of RRIRERPPRLPRPRPRPCHYPRP, the “shrunken log2 fold change” value is reported as -0.224. With RRIRWRPPRLPRPRPRPHKMPRP the “shrunken log2 fold change” value was -0.146. In the case of RRIRGRPPRLPRPRPRPRTLPRP, the “shrunken log2 fold change” value is reported as 0.477. In the case of RRIRKRPPRLPRPRPRPFEWPRP, the “shrunken log2 fold change” value is reported as -0.0618. With RRIRYRPPRLPRPRPRPGWVPRP the “shrunken log2 fold change” value was 0.0444. In the case of RRIRGRPPRLPRPRPRPAVAPRP, the “shrunken log2 fold change” value is reported as 0.813. With RRIRWRPPRLPRPRPRPTPKPRP the “shrunken log2 fold change” value was 0.627. In the case of RRIRLRPPRLPRPRPRPWNAPRP, the “shrunken log2 fold change” value is reported as -0.249. RRIRPRPPRLPRPRPRPVVPPRP was tested, and the “shrunken log2 fold change” value was 0.134. For RRIRWRPPRLPRPRPRPYQYPRP, the “shrunken log2 fold change” value was -0.0756. With RRIRMRPPRLPRPRPRPIFSPRP the “shrunken log2 fold change” value was 0.0637. With RRIRNRPPRLPRPRPRPSMCPRP the “shrunken log2 fold change” value was -0.0503. With RRIRTRPPRLPRPRPRPRMMPRP the “shrunken log2 fold change” value was 1.32. In the case of RRIRRRPPRLPRPRPRPQYSPRP, the “shrunken log2 fold change” value is reported as -0.108. RRIRYRPPRLPRPRPRPWGRPRP was tested, and the “shrunken log2 fold change” value was -0.186. With RRIRCRPPRLPRPRPRPVQEPRP the “shrunken log2 fold change” value was 0.286. With RRIRQRPPRLPRPRPRPLLQPRP the “shrunken log2 fold change” value was 0.212. RRIRWRPPRLPRPRPRPERSPRP was tested, and the “shrunken log2 fold change” value was 0.317. In the case of RRIRYRPPRLPRPRPRPCYRPRP, the “shrunken log2 fold change” value is reported as -0.172. For RRIRNRPPRLPRPRPRPVRPPRP, the “shrunken log2 fold change” value was 0.555. RRIRNRPPRLPRPRPRPHNQPRP was tested, and the “shrunken log2 fold change” value was -0.7. For RRIRMRPPRLPRPRPRPYAQPRP, the “shrunken log2 fold change” value was -0.291. In the case of RRIRWRPPRLPRPRPRPWGMPRP, the “shrunken log2 fold change” value is reported as -0.246. RRIRKRPPRLPRPRPRPFDEPRP was tested, and the “shrunken log2 fold change” value was 0.0269. With RRIRKRPPRLPRPRPRPGFPPRP the “shrunken log2 fold change” value was 0.419. RRIRPRPPRLPRPRPRPFQQPRP was tested, and the “shrunken log2 fold change” value was -0.000989. With RRIRPRPPRLPRPRPRPTQWPRP the “shrunken log2 fold change” value was 0.248. With RRIRARPPRLPRPRPRPVDLPRP the “shrunken log2 fold change” value was 0.174. For RRIRIRPPRLPRPRPRPHIYPRP, the “shrunken log2 fold change” value was 0.13. In the case of RRIRERPPRLPRPRPRPIHWPRP, the “shrunken log2 fold change” value is reported as -0.0429. RRIRCRPPRLPRPRPRPTFNPRP was tested, and the “shrunken log2 fold change” value was -0.525. RRIRRRPPRLPRPRPRPSNMPRP was tested, and the “shrunken log2 fold change” value was -0.311. RRIRQRPPRLPRPRPRPKTEPRP was tested, and the “shrunken log2 fold change” value was 0.104. RRIRQRPPRLPRPRPRPGIAPRP was tested, and the “shrunken log2 fold change” value was 0.719. With RRIRCRPPRLPRPRPRPQKIPRP the “shrunken log2 fold change” value was -0.252. In the case of RRIRTRPPRLPRPRPRPGGDPRP, the “shrunken log2 fold change” value is reported as 0.46. In the case of RRIRYRPPRLPRPRPRPGYSPRP, the “shrunken log2 fold change” value is reported as -0.874. In the case of RRIRKRPPRLPRPRPRPEYKPRP, the “shrunken log2 fold change” value is reported as 0.0908. With RRIRTRPPRLPRPRPRPTRYPRP the “shrunken log2 fold change” value was 0.228. For RRIRRRPPRLPRPRPRPNFNPRP, the “shrunken log2 fold change” value was -0.0741. For RRIRTRPPRLPRPRPRPGYWPRP, the “shrunken log2 fold change” value was -0.0903. RRIRARPPRLPRPRPRPQRGPRP was tested, and the “shrunken log2 fold change” value was 0.468. In the case of RRIRARPPRLPRPRPRPMGSPRP, the “shrunken log2 fold change” value is reported as 0.0355. For RRIRYRPPRLPRPRPRPHHAPRP, the “shrunken log2 fold change” value was -0.00186. In the case of RRIRDRPPRLPRPRPRPGCAPRP, the “shrunken log2 fold change” value is reported as 0.968. In the case of RRIRFRPPRLPRPRPRPWEIPRP, the “shrunken log2 fold change” value is reported as -0.0062. RRIRARPPRLPRPRPRPELLPRP was tested, and the “shrunken log2 fold change” value was 0.961. With RRIRMRPPRLPRPRPRPQDIPRP the “shrunken log2 fold change” value was -0.0524. RRIRARPPRLPRPRPRPELTPRP was tested, and the “shrunken log2 fold change” value was 1.38. With RRIRTRPPRLPRPRPRPDWHPRP the “shrunken log2 fold change” value was -0.053. For RRIRRRPPRLPRPRPRPHSGPRP, the “shrunken log2 fold change” value was 0.0307. RRIRGRPPRLPRPRPRPPHYPRP was tested, and the “shrunken log2 fold change” value was 0.523. RRIRMRPPRLPRPRPRPFITPRP was tested, and the “shrunken log2 fold change” value was -0.456. In the case of RRIRYRPPRLPRPRPRPWGCPRP, the “shrunken log2 fold change” value is reported as -0.404. In the case of RRIRFRPPRLPRPRPRPMDMPRP, the “shrunken log2 fold change” value is reported as 0.0169. For RRIRSRPPRLPRPRPRPDTSPRP, the “shrunken log2 fold change” value was -0.0998. In the case of RRIRHRPPRLPRPRPRPEVYPRP, the “shrunken log2 fold change” value is reported as -0.0062. For RRIRHRPPRLPRPRPRPGYVPRP, the “shrunken log2 fold change” value was -0.211. RRIRVRPPRLPRPRPRPTMFPRP was tested, and the “shrunken log2 fold change” value was -0.158. With RRIRHRPPRLPRPRPRPYFPPRP the “shrunken log2 fold change” value was -1.43. With RRIRGRPPRLPRPRPRPIKMPRP the “shrunken log2 fold change” value was 0.441.
